Measurements from patent publication US8637739B2, “Anti-nematode peptides and methods of use thereof” (Pioneer Hi Bred International Inc, priority 2011, dated 2014).

Test system: C. elegans
Test: C. elegans feeding assay
Type: in vivo, Caenorhabditis elegans
Method: The 75G5 strain was obtained from a biodiverse collection of bacterial strains. The strain was grown in Tryptic soy medium overnight at 20° C., with shaking at 225 rpm. 5 to 30 μL of the liquid culture was added into assay wells in 96-well plates. Each assay well contained 120 μL of liquid with ˜50 L1 staged C. elegans, 30 μg/mL tetracycline, 30 μg/mL chloramphenicol, and S-medium. E. coli strain OP50 was used as a negative control. Forty-eight hours later, the assay plates were scored under a microscope by checking the worm's growth and development.
To further characterize the nematicidal activity, the 75G5 strain was cultured in 50 ml Tryptic soy medium at 20° C. for 18 h, with 225 rpm shaking. The cell pellet was collected after centrifugation at 700 rpm and then stored at −80 C. Total protein was extracted from the cell pellet using the B-PER II Bacterial Protein Extraction Reagent from Thermo. The lysate was centrifuged twice at 10,000 rpm and the final supernatant was collected as the total protein sample.
The expression constructs were then transformed into E. coli TOP10 strain with carbenicillin selection. For protein expression, an E. coli overnight culture was diluted by 50 fold and grown at 37° C. for 2.5 hours (to OD600 ˜0.5). Protein expression was induced by adding 0.8 mM IPTG and the culture was grown for another 5 hours at 30° C. […]

B1: RX025: small, active 25 kDa Sphingobacterium spiritivorum protein; putative twin arginine translocation pathway signal protein (protein, listed as Sphingobacterium spiritivorum)
chain: MHRREALQRVALLMGGTVIGANLFLEGCSRSASKDTAKLFEKDSVNFLGDLAEAILPKTSTPGAKEAGVGEFIPVMIRDCYADTEQKVFLDGINTVDERAKKEFGKKFQELSKEDQTKFVNILDKEASEYNAKQAEATKAQREKDALKQNEMYRVPKSDPPHWFTMFKQLTLTGFFTSELGATKALRYVKIPGKFDGNYPYKKGEHAWA
B1 was tested, and the “nematicidal activity (worm development)” value (E. coli TOP10 strains expressing the RX025 gene from pMAL (MBP fusion) and pQE80L, IPTG induced) was “inhibited worm development, arresting worms at the L1 stage” and the “nematicidal activity of purified protein bands” value (proteins in pooled Mono Q/Mono S fractions of strain 75G5 membrane associated proteins) was “active”.
